Assay: soluble on expression in E. coli; label from the status in PepcDB or PDB records

Soluble on expression in E. coli, not soluble:
MGSDKIHHHHHHMKKVTLLVLDGFGVGAMADCEKVKPEDVNANTYKHLREAVDIHIPTLYQLGLGNIVDHLDTARAAYGRCDLAHHGADTFMGHQELMGSKPGVPQKRLMSEVGATIKKNLEKHGYDVRDPVEGAPVLLVNEAVVVGDNLESEVGNIINVVGDFRKLSFEQTIEVGKVVRSSVDTSRVIVYGNKEKTSIDLILSTIKERHPGQWGVDSPKANVYGEGYQVLHLGYGVDYEKQFAHLAEKQRLPVYRIGKTADVIQASGYHNPVVSTRKVLEVYQHEYSKSERDSVFLVNVQETDLAGHKEDCLWYKEVIEEVDRFLASFIDELDEEDLLIITADHGNDPTIGHSNHTREQTPVIIVGPQVRPISIGTRQTMADLAATMADYMGVAPPQYGTSFLHQILR
MGSDKIHHHHHHMKLLILGNHTCGNRGDSAIMRGLLDAIRQQAPEAEMDVMSRFPVSSAWLQGRPIIADPLYQLSQKQQAAAGLNGRVKKVLRRRFQHKILLSKVAQEGSLRNFAIAPEFAEFAQFIAQYDAVIQVGGSNYVDLYGLTHFEYPLCAFMANKPIYMVGHSVGPFQNPDFNQLANYVFGRTSALILRETVSRDLMTAAQIDTRKVEQGVDTAWLVERRHDEFVASYAVQHWLDVTARRKTVAITLRDLEPFDKRLGTTQQAYEQAFAQVVNRLIADGYQVLALSTCTSIDRYNRDDRMVALRMAKYVNDSENFHIAMDELNDVEIGKILASCVLTIGTRLHSAIISMNFGTPAIAINYEHKSAGIMQQLGLAELAIDIRHLLNGSLQSVVADTLNQLPALKAKVANAVTEERAKGFTMIKSVLDRIREAQ
MGSDKIHHHHHHMKLLLTRPEGKNAAMASALDALAIPYLVEPLLSVEAAAVTQAQLDELSRADILIFISTSAVSFATPWLKDQWPKATYYAVGDATADALALQGITAERSPADSQATEGLLTLPSLEQVSGKQIVIVRGKGGREAMADGLRLRGANVSYLEVYQRACPPLDAPASVSRWQSFGIDTIVVTSGEVLENLINLVPKDSFAWLRDCHIIVPSARVETQARKKGLRRVTNAGAANQAAVLDALGM
MGSDKIHHHHHHMKLLMLCREPRLYSCQRLKESAEDNGHQIDILDPNRCLLKLSKNAPHFELYYQVNSKSEPYLLPDYDAIIPRFGSTSTRMGCAVLRHFRTKNIFCLNDDVAFLKARDKWLSLQLLTEQGIAVPNSALSGAEFSATQAILQIQSPTILKTLHGSQGIGVILAENRKSAVSIMETLTQADVPLLMQDFIQEAQGTDIRCFVIGDKVVATMQRIGQEDEFRANFHRGGSAEKIQLTEQEKVLALKATKCLGLDVAGVDLIRSKQGLLVLEVNASPGLEMIEKTSGIDIALQMIVHIEKQFKR
MGSDKIHHHHHHMKLNLAVFAYHLADYAPRLYDSEVHGLGIGDVRFIDRQETFLSESVYIGAWDKLQALIRPPSYVVCIGRDETTDRWLEKHGVKALILDSEVELNEVFERLQDIFQHYNRLESELLEAVLCKEPLNVLLNICAKFFANPTFITDAALCLVATCDNFAHPETDRAWQETIESGRSSSELLLLMKRKKLTNLLNTSRKAEFVNVGENYSKIICANYFDQEVRIATFTVSEAYTPLSPLQAGLVDHVAKLLTAEVRKQHKASSRYLFAIRSNISNLLHGQKIDGAILKTNFAHIGWTDQEDYRLLKIPLTAAELADGTAGHNRKIYESIFPHYVSLDLNEVLILVIRCARDTEADKRRFAELKKHLKNENAACGVSKTFHDFDMLGEEYKLANAALEIGSWKYPKEALYFYEDMMLEHLFSEGSRIFNLRSLCHDSVLRIAEHDQQNNSSLLQTLKVYLLQEKSLLAASQELHIHRNTLVYRLGKIEQISGLDLNSPLIRLQGILSCLILEYLNGLEEKAPD
MGSDKIHHHHHHMKMTFCRAVCLAAAFLLMGCDEAPETTTASPAAQVLEGKTMGTLWRVSVVGIDAKRAAELQTKIQTQLDADDWLLSTYKNDSALMRFNHSRSLAPWPVSEAMADIVTSALRIGAKTDGAMDITVGPLVNLWGFGPDRQPLHIPTPAQIDAAKAKTGLQHLQVIDRAGHQFLQKDLPDLYVDLSTVGEGYAADHLARLMEQEGIARYLVSVGGALSSRGMNAQGQPWRVAIQKPTDRENAVQAIVDINGHGISTSGSYRNYYELDGKRVSHVIDPQTGRPIEHNLVSVTVIAPTALEADGWDTGLMVLGTQKAQEVVRREGLAVFMIMKEGEGFKTWMSPQFKTFLVSDKN
MGSDKIHHHHHHMKPIATPDPIIAQAVKLFAERGYAETNLPSIAKAANVAVGTIYRHFKGKEDILNTAFTDIMDYFHDSLADAANCNVSDPESTFSHLFDAAALTMQHYPTELHFIEQNVFNEALRPESRAARDRVTTLISNMLMEGQEHGVIVKADVRTQLAILYGSIVSMIDIVWVQQQLQGHVPDQDQLALELKNQIWNGLTCERSIFQ
MGSDKIHHHHHHMKQPLYQQIIDYLQNEIDSGRLPVGAQVPTEKELSAQFNVSRITSKRALTELETQGVIQRHQGKGSFVQAPKHPLHTSLNKVLFLLPFADDLSVGNFYSGLAPTIQAAGLEVFMTSPNFLREKNAADIVNEFAGLVYYAATSNDYLDLLFELALMNFPVVVLDKKIHDLPFATIQSDNFAGGKTATERLIGLGHTKIGYILSGSPALQSVRQRYLGYLQALKEANLAFHTAITETNLLDEHNFKQYFEAHQLTAVVCDNDFSALHCLRNCKNLGIHVPEELSIIGFDDIQAAAFVEPPLTTMAQDFKEMGKLAGEVLLQTMQQDLQIIEDIQVPVTLIERETISTVSK
MGSDKIHHHHHHMKRIDLNGFWSVRDNEGRFSFEGTVPGVVQADLVRKGLLPHPYVGMNEDLFKEIEDREWIYEREFEFKEDVKEGERVDLVFEGVDTLSDVYLNGVYLGSTEDMFIEYRFDVTNVLKEKNHLKVYIKSPIRVPKTLEQNYGVLGGPEDPIRGYIRKAQYSYGWDWGARIVTSGIWKPVYLEVYRARLQDSTAYLLELEGKDALVRVNGFVHGEGNLIVEVYVNGEKIGEFPVLEKNGEKLFDGVFHLKDVKLWYPWNVGKPYLYDFVFVLKDLNGEIYREEKKIGLRRVRIVQEPDEEGKTFIFEINGEKVFAKGANWIPSENILTWLKEEDYEKLVKMARSANMNMLRVWGGGIYEREIFYRLCDELGIMVWQDFMYACLEYPDHLPWFRKLANEEARKIVRKLRYHPSIVLWCGNNENNWGFDEWGNMARKVDGINLGNRLYLFDFPEICAEEDPSTPYWPSSPYGGEKANSEKEGDRHVWYVWSGWMNYENYEKDTGRFISEFGFQGAPHPETIEFFSKPEEREIFHPVMLKHNKQVEGQERLIRFIFGNFGKCKDFDSFVYLSQLNQAEAIKFGVEHWRSRKYKTAGALFWQFNDSWPVFSWSAVDYFKRPKALYYYARRFFAEVLPVLKKRDNKIELLVVSDLRETKEVSLRLAAYEKKGEKVFEKTYRTVLPADGVSLVDRVELPDDLFFFVEAEVDGVKYRNYRVFRKWRDLELPDPEISLEDMGELIELTAQRPAFGVKILSDEVPEDDFLFLEPGRSITLKKPDGVRGVKSLFDYLR
MGSDKIHHHHHHMKRLAFVISSLGAGGAEKVLSLMSHYLAQKGISLTLISLGDSKSFYPLPAQAKIIALGECRSSKGVIDSLFQNLRRIQKLRQALRAARPDLILSFMTETNILSIIAAKSLGIPVIASEHTNYLWQPSRLWNRLRHLLYPLASATTLLTQRDKENHYGFLPQAKILPNPFDFPPLSPTPKEKIILGVGRLIKDKGFDRLIRAFSRISIGDYQLLIAGEGEERVRLEELIQSLGMEEKIHLLGSQKEIYPLYERASIFVLSSSMEGLSNALIEAMSMGCAVISFDCPYGPSEVITPQENGLLVPLHDEVALQEAMERLIQEEPLRQKLSQNAPKVRERFAIDRVMPQWEELMRSILDSTPSCSKES
MGSDKIHHHHHHMKRMTKIGIYGMAVWMLSACGNGTPDYDATGTFEATEVIVSAEAAGKLLQLEVEEGTRLKAGEEVGLVDTVQLYLKKLQLEASMKSVESQRPDLAKQIAATKQQITTAQREKKRVENLLAAGAANQKQLDDWDAQVTLLQQQLIAQESSLMKSTNSLTEQGNSVSIQVAQVEDQLNKCHIQSPIEGTVLAKYAEGGELASVGKPLFKVGEVDRMYLRAYVTSEQLSQVKLGDKVTVYSDYGNSEQKAYPGVVTWISDRSEFTPKTILTKNERANLVYAVKIAVKNDGSLKIGMYGGVVWKKENP
MGSDKIHHHHHHMKRTPGPNKRGSKRMQPNLKFSRGEFADRLAKTRRAMEARGVDLLIVSDPSNMAWLTGYDGWSFYVHQAVIVPPSGEPVWYGRGQDANGAKRTAYLAQNNIVGYADHYVQSTERHPMDFLSSVLSDRGWGKLTIGVEMDNYWFSAAAFASLQKHLPNARFVDATALVNWQRAVKSPTEIDYMRKAARIVEAMHQRIFDRIEIGMRKCDLVAEIYDAGTRGVDGIGGDYPAIVPLLPSGVDASAPHLTWDDQPMKRGEGTFFEIAGCYNRYHCPLSRTVFLGKPTQEFLDAEKATLEGMEAGLAAAKPGNACEDIANAFFAVLKKYGIVKDNRTGYSIGLSYPPDWGERTMSLRPGDHTELKPGMTFHFMTGLWLETMGLEITESILITETGVECLANVPRKLVVKN
MGSDKIHHHHHHMKSIMDSLFDSPVQTARSSSDSDAHNFFKAGPYAPLAARMRPQSLDEVVGQRHLLDSGKPLQRLIAGSGDASVILYGPPGTGKTTIASLISAGTGHEFVGLSALNSGVKEIREVIDQARRNLIHGKRTVLFIDEVHRFSKTQQDALLAAVENRTVLLVAATTENPSFSVVAPLLSRSLILQLKPLTHDDIKTVLLHALQDKRGLDNRITISDEALEQLVLLSGGDARRSLTYLEAASESLADGEELTPEIIRHNVDKAIVRYDRDGDQHYDVVSAFIKSMRGSDVDAALHYLARMIDAGEDPRFIARRLVIHASEDVGMADPQALSVAVAASQAVALIGMPEARINLAQATIHLATAPKSNAVITAIDAALADVKQGKTGPVPAHLRDGHYAGAKQLGNAVGYKYPHDDPRGIVEQQYIPNGLEDVVYYRPSEHGAEQRIESYLGKLRRIVRGQRR
MGSDKIHHHHHHMKSIPSLDDLDLFARIAQAGGLAVVARQSGVSVPTLSRRMRALELQIGVHLFERGSHGYRVTALGRAFLSETRAFQAEAQRLRRMVATPLMAEVRITAGSWTSAFLAQQLPRFWQEDAQWRPAFLEADTRLDIARRGADIGIRNQRPEQAWLAGRYTGLITYAVYAISDQVRGYVVLPENQAKTPSARWVWSHHGGEVAATARSPRMVADLACAGVGQVVLPRFAAAMFPALQQVGPEIAELSHEEWLVCHHDGRHDPPVRAALEGIAAVLTDTTLRPIGA
MGSDKIHHHHHHMKSKANQSQGLLLFRLSQHQIFALGTLKIRELVPYTPLSKIPQSHPTILGAATIRGHTIPVVDMAAAIGYRPVSDEERQHCYIIITDCQRMIIGFLVRAIDKIIECNWRDIEAPSANLGKNAFLTGVTRYDNQLVQLLDVELLLSKVFPDAPEANRAILTDVQREKLKPRRILLVDDSKVARKQLSDALDSINIPYFVTPDGREALSIMEQAAAEHHPIDILVSDIEMPGLDGYELAFEVRDNPLLANAYIILHTSLSSEISVSQAHQVGANEALTKFDAHELVEAMLRGAELAAKRAN
MGSDKIHHHHHHMKSRKFPIRFENFSLSVDGKSVLENITLSFVEGMNVLYGPRGSGKSSLLRSIVKLNTEIFNEISRSGSVYLFDQNVEDLDDIYVRKNALYLDTSFIDAMNQYTFDEFLKLALKRKISLENFSEKLDDLGILRMLIRGQKTPLSVFSPAEKISLLLFILEQKKPRVILMDCLLDHLDDENLEKIMDMFLKMKEERTFVISTRILQRFLYIADLLVILNNGRINYTGSPKDFVLRM

Source: the DeepSol protein solubility set
